In test [1] the target is tubulin as used by Curmi et al. 1997. Description: plasmon resonance measurement. The conditions noted are these: pH 6.5; cited from earlier work.
In test [2] the target is Op18-Δ5-9-F (human). Description: pull-down.
For test [3], the target named is Op18-Δ5-9-F (human). Description: pull-down. The source holds these as a separate data set.

Where two headings read alike, the source gives them in different places.

Broadly, the Kd is the concentration at which binding is half-saturated. Turning to “stathmin/Op18 as used by Curmi et al. 1997”, in test [1], the Kd was 500 nM.

In test [2], “tubulin heterodimer (bovine tubulin) (from UniProt Q6B856 1-445) (complex)” displayed a Free [tubulin] at half saturation of Op18 of 7.1 µM, a Kd1 (first tubulin heterodimer) of 74 µM, a Kd2 (second tubulin heterodimer) of 0.98 µM and a stoichiometry N (mol tubulin per mol) of 2.1. Besides, in test [3], the Kd1 (first tubulin heterodimer) came to 6.5 µM and the Kd2 (second tubulin heterodimer) was 0.91 µM.

(Values after article PMC2156119.)
